Reference: IntAct's records for PubMed 26824392

Molecular target: rab8a_human RAB8A (UniProt P61006)
Sequence (P61006 whole entry): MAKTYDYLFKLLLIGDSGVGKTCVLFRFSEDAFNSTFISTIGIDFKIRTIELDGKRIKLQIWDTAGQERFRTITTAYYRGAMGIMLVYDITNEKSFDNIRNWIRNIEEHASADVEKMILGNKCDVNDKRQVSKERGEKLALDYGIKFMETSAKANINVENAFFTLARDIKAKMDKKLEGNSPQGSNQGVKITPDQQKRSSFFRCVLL

Which “effect of a mutation on the interaction” value does the source give for “Leucine-rich repeat serine/threonine-protein kinase 2 (Homo sapiens), Q5S007 R1441C” here?
The value was “with no effect”.
